{
  "source": "patent US6395479B1",
  "about": "“Androgen-metabolic gene mutations and prostate cancer risk” (University of Southern California, priority 1998, dated 2002)",
  "molecules": {"B1": {"name": "normal enzyme: normal (wild type) steroid 5α-reductase type II from the SRD5A2 construct expressed in cos cells (protein, UniProt P31213 1-254, looked up)", "3-oxo-5-alpha-steroid …": "MQVQCQQSPVLAGSATLVALGALALYVAKPSGYGKHTESLKPAATRLPARAAWFLQELPSFAVPAGILARQPLSLFGPPGTVLLGLFCLHYFHRTFVYSLLNRGRPYPAILILRGTAFCTGNGVLQGYYLIYCAEYPDGWYTDIRFSLGVFLFILGMGINIHSDYILRQLRKPGEISYRIPQGGLFTYVSGANFLGEIIEWIGYALATWSLPALAFAFFSLCFLGLRAFHHHRFYLKMFEDYPKSRKALIPFIF"}, "B2": {"name": "A49T enzyme: steroid 5α-reductase type II encoded by SRD5A2 cDNA with the A49T missense mutation, expressed in cos cells (protein, UniProt P31213 1-254, looked up, variant A49T)", "3-oxo-5-alpha-steroid …": "MQVQCQQSPVLAGSATLVALGALALYVAKPSGYGKHTESLKPAATRLPTRAAWFLQELPSFAVPAGILARQPLSLFGPPGTVLLGLFCLHYFHRTFVYSLLNRGRPYPAILILRGTAFCTGNGVLQGYYLIYCAEYPDGWYTDIRFSLGVFLFILGMGINIHSDYILRQLRKPGEISYRIPQGGLFTYVSGANFLGEIIEWIGYALATWSLPALAFAFFSLCFLGLRAFHHHRFYLKMFEDYPKSRKALIPFIF"}},
  "key": {"[1]": {"tested_on": "SRD5A2 (steroid 5α-reductase type II)", "assay": "SRD5A2 activity in extracts of transfected cos cells: conversion of [14C] testosterone to [14C] dihydrotestosterone with NADPH", "type": "biochemical, human", "conditions": "for Vmax for testosterone to dihydrotestosterone conversion: normalized protein extracts of transfected cos cells, 37° C., cofactor NADPH"}, "[2]": {"biological_target": "T1, SRD5A2 (steroid 5α-reductase type II) (Homo sapiens, UniProt P31213, A49T/L89V)", "T1 construct": "expressed in transfected cells; host or cells: cos cells (electroporated; sonicated cell extracts)", "T1 sequence (P31213 1-254 A49T/L89V)": "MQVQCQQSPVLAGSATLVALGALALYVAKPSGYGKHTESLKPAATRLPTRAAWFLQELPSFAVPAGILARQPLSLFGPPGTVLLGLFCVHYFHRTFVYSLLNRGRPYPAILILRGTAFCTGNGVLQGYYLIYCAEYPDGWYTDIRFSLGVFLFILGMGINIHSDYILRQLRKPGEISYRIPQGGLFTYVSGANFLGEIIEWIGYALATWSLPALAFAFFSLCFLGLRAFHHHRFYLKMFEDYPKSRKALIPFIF", "assay": "SRD5A2 activity in extracts of transfected cos cells: conversion of [14C] testosterone to [14C] dihydrotestosterone with NADPH", "type": "biochemical", "conditions": "substrate testosterone"}},
  "data": [
    {"molecule": "B1", "values": [
      {"measurement": "Vmax for testosterone to dihydrotestosterone conversion", "setting": "[1]", "value": 1.3, "unit": "nmol/min/mg"},
      {"measurement": "testosterone concentration at which the enzyme is substrate inhibited", "setting": "[1]", "value": 1.5, "unit": "µM"}
    ]},
    {"molecule": "B2", "values": [
      {"measurement": "Vmax for testosterone to dihydrotestosterone conversion", "setting": "[1]", "value": 3.8, "unit": "nmol/min/mg"},
      {"measurement": "testosterone concentration at which the enzyme is substrate inhibited", "setting": "[1]", "value": 6, "unit": "µM"},
      {"measurement": "apparent KM for testosterone compared to the normal enzyme", "setting": "[2]", "value": "higher KM for testosterone"}
    ]}
  ]
}
